Data set [1] concerns HeLa Kyoto. Briefly: melting temperature (median over replicates), in situ; higher = more thermally stable.
Data set [2] relates to HeLa Kyoto. Briefly: solubility in G1/S (NP-40 vs SDS abundance) (log2 ratio); higher = more soluble. As to conditions: cell cycle stage: G1/S.
Data set [3] has as its system HeLa Kyoto. Briefly: thermal stability score vs G1/S (z-score of summed log2 fold changes over temperatures); higher = more thermally stable than in G1/S.
Data set [4] relates to HeLa Kyoto. Briefly: solubility change mitosis vs G1/S (difference of NP-40 vs SDS log2 ratios) (log2 ratio difference); higher = more soluble in mitosis.
Setting [5] is: cell cycle stage: early G1 (4.5 h after nocodazole release).
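Throughout, for melting temperature (median over replicates), in situ: HeLa Kyoto cells synchronized by double thymidine or nocodazole block, proteins quantified by TMT10plex mass spectrometry, three independent biological replicates.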
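Throughout, for solubility change mitosis vs G1/S (difference of NP-40 vs SDS log2 ratios): synchronized HeLa Kyoto cells (double thymidine block for G1/S, nocodazole release for mitosis), protein amounts in NP-40 versus SDS lysates quantified by mass spectrometry, three biological replicates.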
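Throughout, for solubility in G1/S (NP-40 vs SDS abundance): HeLa Kyoto cells arrested at G1/S by double thymidine block, proteins quantified by TMT10plex mass spectrometry in mild NP-40 versus SDS extracts, three biological replicates.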
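Throughout, for thermal stability score vs G1/S (z-score of summed log2 fold changes over temperatures): synchronized HeLa Kyoto cells, proteins quantified by TMT10plex mass spectrometry, three biological replicates, mitosis taken 0.5 h after nocodazole release, G1/S directly after double thymidine block.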

As to “MSTNGDDHQVKDSLEQLRCHFTWELSIDDDEMPDLENRVLDQIEFLDTKYSVGIHNLLAYVKHLKGQNEEALKSLKEAENLMQEEHDNQANVRSLVTWGNFAWMYYHMGRLAEAQTYLDKVENICKKLSNPFRYRMECPEIDCEEGWALLKCGGKNYERAKACFEKVLEVDPENPESSAGYAISAYRLDGFKLATKNHKPFSLLPLRQAVRLNPDNGYIKVLLALKLQDEGQEAEGEKYIEEALANMSSQTYVFRYAAKFYRRKGSVDKALELLKKALQETPTSVLLHHQIGLCYKAQMIQIKEATKGQPRGQNREKLDKMIRSAIFHFESAVEKKPTFEVAHLDLARMYIEAGNHRKAEENFQKLLCMKPVVEETMQDIHFHYGRFQEFQKKSDVNAIIHYLKAIKIEQASLTRDKSINSLKKLVLRKLRRKALDLESLSLLGFVYKLEGNMNEALEYYERALRLAADFENSVRQGP [IFIT1]”, the figures for the melting temperature in data set [1] (cell cycle stage: G1/S) and in data set [1] (cell cycle stage: mitosis) were 49.1 °C and 48.3 °C, respectively. Besides, the “solubility in G1/S (log2)” value in data set [2] was 0.322. Moreover, the figures for the thermal stability score in data set [3] (setting [5]) and in data set [3] (cell cycle stage: mitosis) were 1.47 and 2.07, respectively. For the same sequence, in data set [4], the “solubility change mitosis (log2)” value was -0.063.
“MSVDMNSQGSDSNEEDYDPNCEEEEEEEEDDPGDIEDYYVGVASDVEQQGADAFDPEEYQFTCLTYKESEGALNEHMTSLASVLKVSHSVAKLILVNFHWQVSEILDRYKSNSAQLLVEARVQPNPSKHVPTSHPPHHCAVCMQFVRKENLLSLACQHQFCRSCWEQHCSVLVKDGVGVGVSCMAQDCPLRTPEDFVFPLLPNEELREKYRRYLFRDYVESHYQLQLCPGADCPMVIRVQEPRARRVQCNRCNEVFCFKCRQMYHAPTDCATIRKWLTKCADDSETANYISAHTKDCPKCNICIEKNGGCNHMQCSKCKHDFCWMCLGDWKTHGSEYYECSRYKENPDIVNQSQQAQAREALKKYLFYFERWENHNKSLQLEAQTYQRIHEKIQERVMNNLGTWIDWQYLQNAAKLLAKCRYTLQYTYPYAYYMESGPRKKLFEYQQAQLEAEIENLSWKVERADSYDRGDLENQMHIAEQRRRTLLKDFHDT [ARIH2]”: the melting temperature in data set [1] (cell cycle stage: G1/S) turned out to be 51.8 °C; in data set [1] (cell cycle stage: mitosis), 52.3 °C. Moreover, in data set [2], the “solubility in G1/S (log2)” value was -0.242. In addition, the thermal stability score was 0.643 in data set [3] (setting [5]) and -0.0869 in data set [3] (cell cycle stage: mitosis). Besides, the “solubility change mitosis (log2)” value in data set [4] is -0.151.
With “MSVGCACPGCSSKSFKLYSPKEPPNGNAFPPFHPGTMLDRDVGPTPMYPPTYLEPGIGRHTPYGNQTDYRIFELNKRLQNWTEECDNLWWDAFTTEFFEDDAMLTITFCLEDGPKRYTIGRTLIPRYFRSIFEGGATELYYVLKHPKEAFHSNFVSLDCDQGSMVTQHGKPMFTQVCVEGRLYLEFMFDDMMRIKTWHFSIRQHRELIPRSILAMHAQDPQMLDQLSKNITRCGLSNSTLNYLRLCVILEPMQELMSRHKTYSLSPRDCLKTCLFQKWQRMVAPPAEPTRQQPSKRRKRKMSGGSTMSSGGGNTNNSNSKKKSPASTFALSSQVPDVMVVGEPTLMGGEFGDEDERLITRLENTQFDAANGIDDEDSFNNSPALGANSPWNSKPPSSQESKSENPTSQASQ [LDB1]”, the results for the melting temperature in data set [1] (cell cycle stage: G1/S) and in data set [1] (cell cycle stage: mitosis) were 54.2 °C and 55.8 °C, respectively. The “solubility in G1/S (log2)” value in data set [2] is -0.0659. In addition, the thermal stability score in data set [3] (setting [5]) is -3.74; in data set [3] (cell cycle stage: mitosis), -2.44. In data set [4], the “solubility change mitosis (log2)” value was -0.0611.
Turning to “MSVGFIGAGQLAYALARGFTAAGILSAHKIIASSPEMNLPTVSALRKMGVNLTRSNKETVKHSDVLFLAVKPHIIPFILDEIGADVQARHIVVSCAAGVTISSVEKKLMAFQPAPKVIRCMTNTPVVVQEGATVYATGTHALVEDGQLLEQLMSSVGFCTEVEEDLIDAVTGLSGSGPAYAFMALDALADGGVKMGLPRRLAIQLGAQALLGAAKMLLDSEQHPCQLKDNVCSPGGATIHALHFLESGGFRSLLINAVEASCIRTRELQSMADQEKISPAALKKTLLDRVKLESPTVSTLTPSSPGKLLTRSLALGGKKD [PYCR2]”, the values for the melting temperature in data set [1] (cell cycle stage: G1/S) and in data set [1] (cell cycle stage: mitosis) were 54.9 °C and 54.5 °C, respectively. The “solubility in G1/S (log2)” value in data set [2] was 0.291. The thermal stability score in data set [3] (setting [5]) was 1.32; in data set [3] (cell cycle stage: mitosis) it was -3.51. In data set [4], the “solubility change mitosis (log2)” value was -0.0672.
“MSVTLHTDVGDIKIEVFCERTPKTCENFLALCASNYYNGCIFHRNIKGFMVQTGDPTGTGRGGNSIWGKKFEDEYSEYLKHNVRGVVSMANNGPNTNGSQFFITYGKQPHLDMKYTVFGKVIDGLETLDELEKLPVNEKTYRPLNDVHIKDITIHANPFAQ [PPIL3]”: the melting temperature in data set [1] (cell cycle stage: G1/S) was 48.9 °C; in data set [1] (cell cycle stage: mitosis) it was 50 °C. Also, the “solubility in G1/S (log2)” value in data set [2] worked out at 0.455. Also, the thermal stability score in data set [3] (setting [5]) is 1.02; in data set [3] (cell cycle stage: mitosis), 1.31. The “solubility change mitosis (log2)” value in data set [4] is -0.00294.
